In patent US7232659:

What was measured:
[1] = target: FPR-GFP fusion protein (human; Aequorea victoria), P21462; test: Kd from competition on wild type FPR divided by EC50 of LRG assembly with FPR-GFP
[2] = target: FPR-GFP fusion protein (human; Aequorea victoria), P21462; test: flow cytometry, LRG assembly of 30 nM FPR-GFP on αβγ DCNi beads, ligand varied (FIG. 13B)
[3] = target: T1, formyl peptide receptor (FPR), wild type, detergent-solubilized (human), P21462; test: spectrofluorimetric competition with L^F for solubilized FPR, IC50 converted to Kd
T1 chain: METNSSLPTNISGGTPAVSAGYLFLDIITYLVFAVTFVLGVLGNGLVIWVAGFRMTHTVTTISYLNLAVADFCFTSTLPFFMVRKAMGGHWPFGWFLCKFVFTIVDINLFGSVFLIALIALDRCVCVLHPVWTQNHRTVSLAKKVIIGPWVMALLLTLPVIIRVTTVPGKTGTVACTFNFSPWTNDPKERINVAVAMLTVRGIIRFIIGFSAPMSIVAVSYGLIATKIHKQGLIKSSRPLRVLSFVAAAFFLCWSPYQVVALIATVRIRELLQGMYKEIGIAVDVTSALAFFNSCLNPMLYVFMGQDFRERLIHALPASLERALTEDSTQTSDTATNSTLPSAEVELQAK

With MLFF (modifications not checked) [fMLFF] the ratio of Kd (for LR) to EC50 (for LRG formation) [1] was 2.8, the EC50 [2] was 27 nM and the Kd [3] was 75 nM.
